The values that follow are results of earlier work, collected in US9504757B2, “Site-specific GLP-2 conjugate using an immunoglobulin fragment” (HANMI SCIENCE CO., LTD., priority 2011, dated 2016).

The conditions of the series: inactivation by DPP IV; Bolette H. et al. 2000.

For the sequence “HADGSFSDEMNTILDNLAARDFINWLIQTKITD [GLP-2]”, the in vivo half-life was ≤ 7 min.
